Reverse-splicing fitness data for 15 variants are collected here from the RNAGym collection of RNA variant scans (doi:10.1093/molbev/msab373).

The chains are these.
B1: Azoarcus group I ribozyme (parent)
chain: GUGCCUUGCGCCGGGAAACCACGCAAGGGAUGGUGUCAAAUUCGGCGAAACCUAAGCGCCCGCCCGGGCGUAUGGCAACGCCGAGCCAAGCUUCGGCGCCUGCGCCGAUGAAGGUGUAGAGACUAGACGGCACCCACCUAAGGCAAACGCUAUGGUGAAGGCAUAGUCCAGGGAGUGGCGAAAGUCACACAAACCGG

The variants in this data set derive from B1. Put plainly: reverse-splicing fitness (ratio to wild type); higher = more active; in vitro selection; Mg2+ level not given. The essentials:
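An in vitro group I ribozyme library with randomized positions was T7-transcribed and gel-purified. In triplicate, 10 pmol RNA in EPPS pH 7.5 was reacted with 50 pmoles of a 30-nt RNA substrate for 1 h at 37 °C across several added MgCl2 levels (1–48 mM), then stopped with EDTA. Products were reverse transcribed from a substrate-complementary primer, PCR-amplified and sequenced (HiSeq 4000). Fitness is a variant's read proportion after selection over that before, normalised to wild type.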
For GUGCCUUGCGCCGGGAAACCACGCAAGGGAUGGUGUCAAAUUCGGCGAAACCUAAGCGCCCGCCCGGGCGUAUGGCAACGCAGAGCCAAGCUUCGGCGCCUGCGCCGAUGCAGGUGUAGCGACUAGACGGCACCCACCUAAGGCCAACGGUAUGGUGAAGGCAUAGUCGAGGGAGGGGCGAAAGUCACACAAACCGG [C82A A111C A120C A145C C150G C169G U176G], the reverse-splicing fitness is 0.00702.
In the case of GUGCCUUGCGCCGGGAAACCACGCAAGGGAUGGUGUCAAAUUCGGCGAAACCUAAGCGCCCGCCCGGGCGUAUGGCAACGCAGAGCCAAGCUUCGGCGCCUGCGCCGAUGCAGGUGUAGCGACUAGACGGCACCCACCUAAGGCCAACGGUAUGGUGAAGGCAUAGUCGAGGGAGAGGCGAAAGUCACACAAACCGG [C82A A111C A120C A145C C150G C169G U176A] it was 0.00867; in that of GUGCCUUGCGCCGGGAAACCACGCAAGGGAUGGUGUCAAAUUCGGCGAAACCUAAGCGCCCGCCCGGGCGUAUGGCAACGCAGAGCCAAGCUUCGGCGCCUGCGCCGAUGCAGGUGUAGCGACUAGACGGCACCCACCUAAGGCCAACGCUAUGGUGAAGGCAUAGUCCAGGGAGUGGCGAAAGUCACACAAACCGG [C82A A111C A120C A145C], 0.0248; in that of GUGCCUUGCGCCGGGAAACCACGCAAGGGAUGGUGUCAAAUUCGGCGAAACCUAAGCGCCCGCCCGGGCGUAUGGCAACGCAGAGCCAAGCUUCGGCGCCUGCGCCGAUGCAGGUGUAGCGACUAGACGGCACCCACCUAAGGCAAACGCUAUGGUGAAGGCAUAGUCCAGGGAGUGGCGAAAGUCACACAAACCGG [C82A A111C A120C], 0.0246.
In the case of GUGCCUUGCGCCGGGAAACCACGCAAGGGAUGGUGUCAAAUUCGGCGAAACCUAAGCGCCCGCCCGGGCGUAUGGCAACGCAGAGCCAAGCUUCGGCGCCUGCGCCGAUGCAGGUGUAGCGACUAGACGGCACCCACCUAAGGCCAACGGUAUGGUGAAGGCAUAGUCUAGGGAGUGGCGAAAGUCACACAAACCGG [C82A A111C A120C A145C C150G C169U] it was 0.00879.
Turning to GUGCCUUGCGCCGGGAAACCACGCAAGGGAUGGUGUCAAAUUCGGCGAAACCUAAGCGCCCGCCCGGGCGUAUGGCAACGCAGAGCCAAGCUUCGGCGCCUGCGCCGAUGCAGGUGUAGCGACUAGACGGCACCCACCUAAGGCCAACGGUAUGGUGAAGGCAUAGUCAAGGGAGUGGCGAAAGUCACACAAACCGG [C82A A111C A120C A145C C150G C169A], the reverse-splicing fitness stood at 0.00854.
For GUGCCUUGCGCCGGGAAACCACGCAAGGGAUGGUGUCAAAUUCGGCGAAACCUAAGCGCCCGCCCGGGCGUAUGGCAACGCAGAGCCAAGCUUCGGCGCCUGCGCCGAUGCAGGUGUAGCGACUAGACGGCACCCACCUAAGGCCAACGGUAUGGUGAAGGCAUAGUCGAGGGAGUGGCGAAAGUCACACAAACCGG [C82A A111C A120C A145C C150G C169G] the value was 0.00631.
For GUGCCUUGCGCCGGGAAACCACGCAAGGGAUGGUGUCAAAUUCGGCGAAACCUAAGCGCCCGCCCGGGCGUAUGGCAACGCAGAGCCAAGCUUCGGCGCCUGCGCCGAUGCAGGUGUAGCGACUAGACGGCACCCACCUAAGGCCAACGAUAUGGUGAAGGCAUAGUCAAGGGAGAGGCGAAAGUCACACAAACCGG [C82A A111C A120C A145C C150A C169A U176A] the value was 0.0167; for GUGCCUUGCGCCGGGAAACCACGCAAGGGAUGGUGUCAAAUUCGGCGAAACCUAAGCGCCCGCCCGGGCGUAUGGCAACGCAGAGCCAAGCUUCGGCGCCUGCGCCGAUGCAGGUGUAGCGACUAGACGGCACCCACCUAAGGCCAACGAUAUGGUGAAGGCAUAGUCAAGGGAGGGGCGAAAGUCACACAAACCGG [C82A A111C A120C A145C C150A C169A U176G], 0.00733.
With GUGCCUUGCGCCGGGAAACCACGCAAGGGAUGGUGUCAAAUUCGGCGAAACCUAAGCGCCCGCCCGGGCGUAUGGCAACGCAGAGCCAAGCUUCGGCGCCUGCGCCGAUGCAGGUGUAGCGACUAGACGGCACCCACCUAAGGCCAACGAUAUGGUGAAGGCAUAGUCAAGGGAGCGGCGAAAGUCACACAAACCGG [C82A A111C A120C A145C C150A C169A U176C], the reverse-splicing fitness was 0.00935.
For the variant GUGCCUUGCGCCGGGAAACCACGCAAGGGAUGGUGUCAAAUUCGGCGAAACCUAAGCGCCCGCCCGGGCGUAUGGCAACGCAGAGCCAAGCUUCGGCGCCUGCGCCGAUGAAGGUGUAGAGACUAGACGGCACCCACCUAAGGCAAACGCUAUGGUGAAGGCAUAGUCCAGGGAGUGGCGAAAGUCACACAAACCGG [C82A], the reverse-splicing fitness stood at 0.658.
For GUGCCUUGCGCCGGGAAACCACGCAAGGGAUGGUGUCAAAUUCGGCGAAACCUAAGCGCCCGCCCGGGCGUAUGGCAACGCAGAGCCAAGCUUCGGCGCCUGCGCCGAUGCAGGUGUAGAGACUAGACGGCACCCACCUAAGGCAAACGCUAUGGUGAAGGCAUAGUCCAGGGAGUGGCGAAAGUCACACAAACCGG [C82A A111C] the value was 0.228.
In the case of GUGCCUUGCGCCGGGAAACCACGCAAGGGAUGGUGUCAAAUUCGGCGAAACCUAAGCGCCCGCCCGGGCGUAUGGCAACGCAGAGCCAAGCUUCGGCGCCUGCGCCGAUGCAGGUGUAGCGACUAGACGGCACCCACCUAAGGCCAACGGUAUGGUGAAGGCAUAGUCAAGGGAGAGGCGAAAGUCACACAAACCGG [C82A A111C A120C A145C C150G C169A U176A] it was 0.00949; in that of GUGCCUUGCGCCGGGAAACCACGCAAGGGAUGGUGUCAAAUUCGGCGAAACCUAAGCGCCCGCCCGGGCGUAUGGCAACGCAGAGCCAAGCUUCGGCGCCUGCGCCGAUGCAGGUGUAGCGACUAGACGGCACCCACCUAAGGCCAACGGUAUGGUGAAGGCAUAGUCAAGGGAGCGGCGAAAGUCACACAAACCGG [C82A A111C A120C A145C C150G C169A U176C], 0.00798; in that of GUGCCUUGCGCCGGGAAACCACGCAAGGGAUGGUGUCAAAUUCGGCGAAACCUAAGCGCCCGCCCGGGCGUAUGGCAACGCAGAGCCAAGCUUCGGCGCCUGCGCCGAUGCAGGUGUAGCGACUAGACGGCACCCACCUAAGGCCAACGGUAUGGUGAAGGCAUAGUCAAGGGAGGGGCGAAAGUCACACAAACCGG [C82A A111C A120C A145C C150G C169A U176G], 0.00767.
